In paper PMC4081085:

Legend:
Experiment in all cases: fluorescence polarization
PARP-2 WT = details: none, FP: 5 nM labeled DNA, 30 min, RT, PARP-1/-2 buffer per cited ref 19, PARP-3 in 12 mM HEPES pH 8.0, 30 mM KCl (low) or 60 mM KCl (intermediate), 0.12 mM EDTA
dNTR-PARP-2 = details: 5' phosphate on one strand, FP: 5 nM labeled DNA, 30 min, RT, PARP-1/-2 buffer per cited ref 19, PARP-3 in 12 mM HEPES pH 8.0, 30 mM KCl (low) or 60 mM KCl (intermediate), 0.12 mM EDTA
PARP-2 Y188F = details: 5' phosphate on one strand, FP: 5 nM labeled DNA, 30 min, RT, PARP-1/-2 buffer per cited ref 19, PARP-3 in 12 mM HEPES pH 8.0, 30 mM KCl (low) or 60 mM KCl (intermediate), 0.12 mM EDTA
PARP-2 W138A = details: 5' phosphate on one strand, FP: 5 nM labeled DNA, 30 min, RT, PARP-1/-2 buffer per cited ref 19, PARP-3 in 12 mM HEPES pH 8.0, 30 mM KCl (low) or 60 mM KCl (intermediate), 0.12 mM EDTA
PARP-2 R140A = details: 5' phosphate on one strand, FP: 5 nM labeled DNA, 30 min, RT, PARP-1/-2 buffer per cited ref 19, PARP-3 in 12 mM HEPES pH 8.0, 30 mM KCl (low) or 60 mM KCl (intermediate), 0.12 mM EDTA
PARP-2 N116A = details: 5' phosphate on one strand, FP: 5 nM labeled DNA, 30 min, RT, PARP-1/-2 buffer per cited ref 19, PARP-3 in 12 mM HEPES pH 8.0, 30 mM KCl (low) or 60 mM KCl (intermediate), 0.12 mM EDTA
dNTR-PARP-3 = details: low ionic strength buffer?, 5' phosphate at nick, position 24, FP: 5 nM labeled DNA, 30 min, RT, PARP-1/-2 buffer per cited ref 19, PARP-3 in 12 mM HEPES pH 8.0, 30 mM KCl (low) or 60 mM KCl (intermediate), 0.12 mM EDTA
PARP-3 R103A = details: 5' phosphate at nick, position 24, FP: 5 nM labeled DNA, 30 min, RT, PARP-1/-2 buffer per cited ref 19, PARP-3 in 12 mM HEPES pH 8.0, 30 mM KCl (low) or 60 mM KCl (intermediate), 0.12 mM EDTA
PARP-3 Y150F = details: 5' phosphate at nick, position 24, FP: 5 nM labeled DNA, 30 min, RT, PARP-1/-2 buffer per cited ref 19, PARP-3 in 12 mM HEPES pH 8.0, 30 mM KCl (low) or 60 mM KCl (intermediate), 0.12 mM EDTA

28-bp duplex 5'OH (non-phosphorylated)
binding signal (fold lower affinity than for 5'P DNA) (PARP-2 WT): 2.5

28-bp duplex 5'P (template 18)
binding signal (fold lower affinity than WT) (dNTR-PARP-2): 4
binding signal (% of WT affinity) (PARP-2 Y188F): 7
binding signal (% of WT affinity) (PARP-2 W138A): 28
binding signal (% of WT affinity) (PARP-2 R140A): 25
binding signal (% of WT affinity) (PARP-2 N116A): 45

47-bp duplex with 5'P nick (template 8)
binding signal (fold lower affinity than WT) (dNTR-PARP-3): 3.5
binding signal (% of WT affinity) (PARP-3 R103A): 25
binding signal (% of WT affinity) (PARP-3 Y150F): 54
